Assay results from the supplement of paper PMC10126150.
± gives the standard deviation of the averaged measurements.

Each sequence was assayed on ATP (assay: switch fluorescence ratio, 500 uM ATP over buffer (Cy3 cluster intensity, sum of 5 cycles each) (fold (ratio)); higher = stronger signal-on switching upon ATP binding; sequences stand for … in TCGTCGGCAGCGTCAGATGTGTATAAGAGACAGTTTTTTTTTTTTTTTTTTTTTTTTT…TC). Details: aptamer strand: ATP DNA aptamer (quencher-CACCTGGGGGAGTATTGCGGAGGAAGG + anchor), 100 nM annealed; ATP concentration: 500 uM.
Summary of the method: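 Clusters carrying Cy3-labelled switching strands on a modified Illumina MiSeq flow-cell were annealed to 100 nM quencher-labelled ATP aptamer and imaged in selection buffer. They were imaged again after 15 min with 500 uM ATP at 22 °C, over five buffer/ATP cycles with NaOH stripping and re-annealing in between. For each cluster, the fluorescence ratio is the summed Cy3 intensity of the target cycles divided by that of the buffer cycles, averaged per switch-domain sequence. Clusters outside 100-1000 RFU were left out.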
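Also: ATP exposure 15 min at 22 °C before imaging.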

| Sequence | switch fluorescence ratio |
| --- | --- |
| GCCCATAGAC | 1.12 ± 0.041 |
| GCCCATAGGA | 0.978 ± 0.094 |
| GCCCCGGCTG | 1.03 ± 0.045 |
| GCCCCGGGTT | 1.36 ± 0.37 |
| GCCCGGCCAG | 0.9693 ± 0.0062 |
| GCCCGGGCAT | 0.986 ± 0.013 |
| GCCCGGGGGA | 1.94 ± 1.3 |
| GCCCGTATGG | 1 ± 0.019 |
| GCCCGTTCGG | 1.01 ± 0.028 |
| GCCCTAGTGT | 1.13 ± 0.024 |
| GCCCTGAGCG | 1.011 ± 0.0066 |
| GCCCTTAGCA | 1.018 ± 0.0013 |
| GCCGAAGGGG | 1.004 ± 0.0035 |
| GCCGAATATG | 1.01 ± 0.015 |
| GCCGACAAGC | 1.05 ± 0.083 |
| GCCGCCAGGG | 1.26 ± 0.068 |
| GCCGCGGGGA | 1.04 ± 0.024 |
| GCCGGATTGG | 0.956 ± 0.021 |
| GCCGGCTGTG | 0.9902 ± 0.0018 |
| GCCGGCTTTC | 1.01 ± 0.048 |
| GCCGGGACGC | 1.05 ± 0.049 |
| GCCGGGGCGC | 1 ± 0.012 |
| GCCGGTAGGG | 0.98 ± 0.031 |
| GCCGGTTCTG | 1.06 ± 0.022 |
| GCCGTCAGTT | 0.9899 ± 0.0048 |

| Sequence | switch fluorescence ratio |
| --- | --- |
| GCCGTGCGGG | 0.978 ± 0.03 |
| GCCGTTTTGG | 1 ± 0.034 |
| GCCTAAGTTT | 0.986 ± 0.024 |
| GCCTATGCAA | 1.48 ± 0.021 |
| GCCTATTTGG | 0.998 ± 0.023 |
| GCCTCAGACA | 1.047 ± 0.0092 |
| GCCTCAGGAT | 0.996 ± 0.068 |
| GCCTGAAAGC | 0.9912 ± 0.0054 |
| GCCTGAGATG | 1.03 ± 0.017 |
| GCCTGCTAGC | 1.008 ± 0.007 |
| GCCTGCTTGC | 1.03 ± 0.053 |
| GCCTGGTTTT | 0.979 ± 0.024 |
| GCCTTAAAGG | 1.005 ± 0.0029 |
| GCCTTAACGG | 1.01 ± 0.021 |
| GCCTTACGGT | 1.04 ± 0.038 |
| GCCTTATATA | 0.9952 ± 0.0063 |
| GCCTTCAAGC | 1.04 ± 0.054 |
| GCCTTGATGG | 1.01 ± 0.021 |
| GCCTTGTTCA | 0.993 ± 0.022 |
| GCCTTTGGCA | 0.962 ± 0.013 |
| GCGAAAAAGG | 0.997 ± 0.035 |
| GCGAAAAGAA | 1.05 ± 0.054 |
| GCGAAAGGT | 0.9846 ± 0.0017 |
| GCGAAGGTCT | 1 ± 0.014 |
| GCGAATCGTA | 0.999 ± 0.049 |

| Sequence | switch fluorescence ratio |
| --- | --- |
| GCGACGTGAC | 3.17 ± 0.24 |
| GCGACGTTGC | 0.999 ± 0.036 |
| GCGAGAGCTG | 0.992 ± 0.017 |
| GCGAGAGGGT | 0.974 ± 0.025 |
| GCGAGAGTGT | 0.99552 ± 0.00015 |
| GCGAGCCAGG | 2.169 ± 0.011 |
| GCGAGCGAAA | 0.982 ± 0.019 |
| GCGAGGCCCG | 0.9944 ± 0.0017 |
| GCGAGGGAGG | 1.02 ± 0.052 |
| GCGAGGGGCT | 0.9717 ± 0.0031 |
| GCGAGGTGCA | 1.03 ± 0.055 |
| GCGAGGTGGT | 1.001 ± 0.0076 |
| GCGAGGTTGA | 1.045 ± 0.0015 |
| GCGAGTAGG | 1.06 ± 0.056 |
| GCGAGTGTGA | 1 ± 0.036 |
| GCGATAAACC | 1.1929 ± 0.00026 |
| GCGATAAGAT | 1.0048 ± 0.00093 |
| GCGATACTGT | 3.08 ± 0.17 |
| GCGATAGCTC | 0.973 ± 0.043 |
| GCGATATCTT | 1.04 ± 0.029 |
| GCGATCTGGA | 1.04 ± 0.022 |
| GCGATGGGGA | 1.012 ± 0.0098 |
| GCGATTGGAG | 1.01 ± 0.034 |
| GCGCAACAGG | 1.04 ± 0.015 |
| GCGCAGACTT | 1.15 ± 0.034 |

| Sequence | switch fluorescence ratio |
| --- | --- |
| GCGCCAAGAG | 1.29 ± 0.11 |
| GCGCCGGAG | 1.0019 ± 0.00089 |
| GCGCGACGGA | 0.9905 ± 0.0014 |
| GCGCGCGACT | 1.002 ± 0.0092 |
| GCGCGCGATT | 0.997 ± 0.025 |
| GCGCGGCTGG | 1.02 ± 0.00077 |
| GCGCTACGGG | 1.01 ± 0.019 |
| GCGCTAGGTG | 2.19 ± 0.12 |
| GCGCTCATAG | 1.15 ± 0.018 |
| GCGCTCCGGG | 1.09 ± 0.072 |
| GCGCTGGGCA | 1.01 ± 0.035 |
| GCGCTTCAA | 0.971 ± 0.014 |
| GCGCTTGGGG | 0.982 ± 0.011 |
| GCGCTTTTTT | 0.9898 ± 0.00075 |
| GCGGAAAAAC | 1.02 ± 0.058 |
| GCGGAAGATC | 1.03 ± 0.021 |
| GCGGAAGGAG | 1 ± 0.016 |
| GCGGAATGGA | 1.02 ± 0.013 |
| GCGGAGAGGT | 1.03 ± 0.022 |
| GCGGAGCTTT | 1.01 ± 0.015 |
| GCGGATGCTT | 0.9718 ± 0.0056 |
| GCGGCACAAT | 1.05 ± 0.013 |
| GCGGCACGTG | 0.97 ± 0.048 |
| GCGGCCCTGG | 1.008 ± 0.0064 |
| GCGGCCTCTT | 0.993 ± 0.013 |
